Experimental data: PMC5973687 (mAbs, 2018)
Values belong to the molecule of their own block, whether it stands above or below them.

Assays:
DR3-Fc = DR3-Fc (UniProt Q93038); assay: ELISA
DcR3-Fc = molecular target: T1, DcR3-Fc (UniProt O95407 30-300); assay: ELISA
T1 sequence (looked up): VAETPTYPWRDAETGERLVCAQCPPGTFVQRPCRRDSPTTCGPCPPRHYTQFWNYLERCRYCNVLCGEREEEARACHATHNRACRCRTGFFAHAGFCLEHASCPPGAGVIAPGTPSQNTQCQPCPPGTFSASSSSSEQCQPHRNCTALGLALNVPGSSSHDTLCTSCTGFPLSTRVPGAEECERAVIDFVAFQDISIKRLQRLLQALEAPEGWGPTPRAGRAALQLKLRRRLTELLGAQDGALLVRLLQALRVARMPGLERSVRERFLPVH

Sequence of DR3-Fc (Q93038 25-199): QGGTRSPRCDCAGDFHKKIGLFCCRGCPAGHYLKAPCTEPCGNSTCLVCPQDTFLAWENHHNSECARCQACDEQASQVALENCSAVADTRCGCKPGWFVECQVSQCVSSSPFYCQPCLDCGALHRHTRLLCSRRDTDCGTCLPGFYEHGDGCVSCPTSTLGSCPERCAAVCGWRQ

decrease in binding against wild-type TL1A (DR3-Fc): 50%
Molecule: TL1A-R32A (ligand)

binding result (DcR3-Fc): binds
B1: human TL1A (extracellular domain, recombinant) (ligand, UniProt O95150 57-251, looked up)
chain: SQLRAQGEACVQFQALKGQEFAPSHQQVYAPLRADGDKPRAHLTVVRQTPTQHFKNQFPALHWEHELGLAFTKNRMNYTNKFLLIPESGDYFIYSQVTFRGMTSECSEIRQAGRPNKPDSITVVITKVTDSYPEPTQLLMGTKSVCEVGSNWFQPIYLGAMFSLQEGDKLMVNVSDISLVDYTKEDKTFFGAFLL
modifications: biotin (single-site biotinylated, site not stated) in the competition ELISA
